In paper PMC5498496:

How the values were obtained:
[1] = αIIbβ3 cell surface expression, flow cytometry; conditions: glycan lost; control: wild-type β3 with αIIb
[2] = surface expression by mAbs 10E5, AP2, AP3, flow cytometry; conditions: glycan lost; control: wild-type αIIbβ3
[3] = eptifibatide-induced mAb binding, flow cytometry; conditions: glycan lost; control: wild-type β3 with αIIb
[4] = αVβ3 cell surface expression, flow cytometry; conditions: glycan lost; control: wild-type αV with β3

B1: integrin β3 subunit: β3-N320Q-N559Q (protein)
parent chain: MRARPRPRPLWATVLALGALAGVGVGGPNICTTRGVSSCQQCLAVSPMCAWCSDEALPLGSPRCDLKENLLKDNCAPESIEFPVSEARVLEDRPLSDKGSGDSSQVTQVSPQRIALRLRPDDSKNFSIQVRQVEDYPVDIYYLMDLSYSMKDDLWSIQNLGTKLATQMRKLTSNLRIGFGAFVDKPVSPYMYISPPEALENPCYDMKTTCLPMFGYKHVLTLTDQVTRFNEEVKKQSVSRNRDAPEGGFDAIMQATVCDEKIGWRNDASHLLVFTTDAKTHIALDGRLAGIVQPNDGQCHVGSDNHYSASTTMDYPSLGLMTEKLSQKNINLIFAVTENVVNLYQNYSELIPGTTVGVLSMDSSNVLQLIVDAYGKIRSKVELEVRDLPEELSLSFNATCLNNEVIPGLKSCMGLKIGDTVSFSIEAKVRGCPQEKEKSFTIKPVGFKDSLIVQVTFDCDCACQAQAEPNSHRCNNGNGTFECGVCRCGPGWLGSQCECSEEDYRPSQQDECSPREGQPVCSQRGECLCGQCVCHSSDFGKITGKYCECDDFSCVRYKGEMCSGHGQCSCGDCLCDSDWTGYYCNCTTRTDTCMSSNGLLCSGRGKCECGSCVCIQPGSYGDTCEKCPTCPDACTFKKECVECKKFDRGALHDENTCNRYCRDEIESVKELKDTGKDAVNCTYKNEDDCVVRFQYYEDSSGKSILYVVEEPECPKGPDILVVLLSVMGAILLIGLAALLIWKLLITIHDRKEFAKFEEERARAKWDTANNPLYKEATSTFTNITYRGT
For B1, the expression_or_secretion [1] was “decreases”.

B2: integrin β3 subunit: β3-N559Q (protein)
parent chain: B1 parent chain
In the case of B2, the expression_or_secretion [2] is reported as “no change” and the structure_or_conformation [3] is reported as “decreases”.

B3: integrin β3 subunit: β3-N320S (protein)
parent chain: B1 parent chain
With B3 the expression_or_secretion [1] was “decreases”.

B4: integrin β3 subunit: β3-N320R (protein)
parent chain: B1 parent chain
For B4, the expression_or_secretion [2] was “no change” and the structure_or_conformation [3] was “decreases”.

B5: integrin αV subunit: αV-N950Q (protein)
parent chain: MAFPPRRRLRLGPRGLPLLLSGLLLPLCRAFNLDVDSPAEYSGPEGSYFGFAVDFFVPSASSRMFLLVGAPKANTTQPGIVEGGQVLKCDWSSTRRCQPIEFDATGNRDYAKDDPLEFKSHQWFGASVRSKQDKILACAPLYHWRTEMKQEREPVGTCFLQDGTKTVEYAPCRSQDIDADGQGFCQGGFSIDFTKADRVLLGGPGSFYWQGQLISDQVAEIVSKYDPNVYSIKYNNQLATRTAQAIFDDSYLGYSVAVGDFNGDGIDDFVSGVPRAARTLGMVYIYDGKNMSSLYNFTGEQMAAYFGFSVAATDINGDDYADVFIGAPLFMDRGSDGKLQEVGQVSVSLQRASGDFQTTKLNGFEVFARFGSAIAPLGDLDQDGFNDIAIAAPYGGEDKKGIVYIFNGRSTGLNAVPSQILEGQWAARSMPPSFGYSMKGATDIDKNGYPDLIVGAFGVDRAILYRARPVITVNAGLEVYPSILNQDNKTCSLPGTALKVSCFNVRFCLKADGKGVLPRKLNFQVELLLDKLKQKGAIRRALFLYSRSPSHSKNMTISRGGLMQCEELIAYLRDESEFRDKLTPITIFMEYRLDYRTAADTTGLQPILNQFTPANISRQAHILLDCGEDNVCKPKLEVSVDSDQKKIYIGDDNPLTLIVKAQNQGEGAYEAELIVSIPLQADFIGVVRNNEALARLSCAFKTENQTRQVVCDLGNPMKAGTQLLAGLRFSVHQQSEMDTSVKFDLQIQSSNLFDKVSPVVSHKVDLAVLAAVEIRGVSSPDHVFLPIPNWEHKENPETEEDVGPVVQHIYELRNNGPSSFSKAMLHLQWPYKYNNNTLLYILHYDIDGPMNCTSDMEINPLRIKISSLQTTEKNDTVAGQGERDHLITKRDLALSEGDIHTLGCGVAQCLKIVCQVGRLDRGKSAILYVKSLLWTETFMNKENQNHSYSLKSSASFNVIEFPYKNLPIEDITNSTLVTTNVTWGIQPAPMPVPVWVIILAVLAGLLLLAVLVFVMYRMGFFKRVRPPQEEQEREQLQPHENGEGNSET
For B5, the expression_or_secretion [4] was “decreases”.

B6: integrin αV subunit: αV-N458Q (protein)
parent chain: B5 parent chain
With B6 the expression_or_secretion [4] was “no change”.

B7: integrin αV subunit: αV-N943Q (protein)
parent chain: B5 parent chain
In the case of B7, the expression_or_secretion [4] is reported as “decreases”.
